US7892769B2, “Processing of EphA4 polypeptide by γ-secretase activity” (Eisai R&D Management Co., Ltd., priority 2007, dated 2011)

B1: HA-EICD: rat EphA4 intracellular domain (amino acid 571 to stop) with N-terminal HA tag, SEQ ID NO: 94, expressed by transfection (protein, listed as Rattus norvegicus)
chain: MDYPYDVPDYATRVERRRSKYSQAKQEADEEKHLNQGVRTYVDPFTYEDPNQAVREFAKEIDASCIKIEKVIGVGEFGEVCSGRLKVPGKREICVAIKTLKAGYTDKQRRDFLSEASIMGQFDHPNIIHLEGVVTKCKPVMIITEYMENGSLDAFLRKNDGRFTVIQLVGMLRGIGSGMKYLSDMSYVHRDLAARNILVNSNLVCKVSDFGMSRVLEDDPEAAYTTRGGKIPIRWTAPEAIAYRKFTSASDVWSYGIVMWEVMSYGERPYWDMSNQDVIKAIEEGYRLPPPMDCPIALHQLMLDCWQKERSDRPKFGQIVNMLDKLIRNPNSLKRTGPESSRPNTALLDPSSPEFSAVVSVGDWLQAIKMDRYKDNFTAAGYTTLEAVVHMSQDDLARIGITAITHQNKILSSVQAMRTQMQQMHGRMVPV
modifications: N-terminal HA tag
B2: HA-γ-fragment: γ-secretase-cleaved rat EphA4 intracellular fragment with N-terminal HA tag, SEQ ID NO: 198, expressed by transfection (protein)
chain: MSALLILALVGAAVAGSEFTRVEVTTNTVPSRIIGDGANSTVLLVSVSGSVVLVVILIAAFVISRRRSKYSQAKQEADEEKHLNQGVRTYVDPFTYEDPNQAVREFAKEIDASCIKIEKVIGVGEFGEVCSGRLKVPGKREICVAIKTLKAGYTDKQRRDFLSEASIMGQFDHPNIIHLEGVVTKCKPVMIITEYMENGSLDAFLRKNDGRFTVIQLVGMLRGIGSGMKYLSDMSYVHRDLAARNILVNSNLVCKVSDFGMSRVLEDDPEAAYTTRGGKIPIRWTAPEAIAYRKFTSASDVWSYGIVMWEVMSYGERPYWDMSNQDVIKAIEEGYRLPPPMDCPIALHQLMLDCWQKERSDRPKFGQIVNMLDKLIRNPNSLKRTGPESSRPNTALLDPSSPEFSAVVSVGDWLQAIKMDRYKDNFTAAGYTTLEAVVHMSQDDLARIGITAITHQNKILSSVQAMRTQMQQMHGRMVPVAAAMDYPYDVPDYA
modifications: N-terminal HA tag; synthetic DNA

Tests used:
Assay type in all cases: cell-based
[1] = biological target: T1, γ-secretase (Homo sapiens, UniProt P49768); test: Analysis of EphA4 processing in EphA4-HA-transfected 293/EBNA-1 cell strain (Western blotting, anti-HA antibody); details: 50 nM Compound E, one day; cells expressing rat EphA4 with C-terminal HA tag; vs sample untreated with Compound E; FIG. 1
T1 construct: host or cells: 293/EBNA-1 (HEK293) cells; only the substrate EphA4-HA was transfected
Method: Whether or not EphA4 is a substrate for γ-secretase was evaluated using HEK293 cells expressing EphA4 with an HA tag added to its C-terminus, in the presence of a γ-secretase inhibitor. As the γ-secretase inhibitor, (2S)-2-{[(3,5-difluorophenyl)acetyl]amino}-N-[(3S)-1-methyl-2-oxo-5-phenyl-2,3-dihydro-1H-1,4-benzodiazepin-3-yl]propanamide (hereinafter, sometimes referred to as “Compound E”) (Alexis Biochemicals) was used.
293/EBNA-1 cell strain (Invitrogen) was cultured in 10% FEB (Hyclone)/DMEM (Invitrogen) under 5% CO2 at 37° C., followed by transfection thereinto of a gene encoding rat EphA4 with an HA tag added to its C-terminus with Lipofectamine 2000 (Invitrogen). After one day culture under the same conditions, 50 nM Compound E (Alexis Biochemicals) was added to the medium. Cells were cultured for another day under the same conditions. Then, the transfected HEK293 cells were collected with PBS (Sigma) and sonicated with a sonicator (Taitec VP-5S) to disrupt cells. Then, the quantity of protein was determined with Protein Assay Kit (BioRad). […]
First, the substrate for γ-secretase is cut off its extracellular domain by other protease. […] Since reactions proceed very quickly from the first cleavage to the final degradation by proteasome, the substrate is […] when detected by Western blotting.

[2] = biological target: T2, γ-secretase (Rattus norvegicus, UniProt P97887); test: Analysis of EphA4 processing in primary culture of rat hippocampal neurons (Western blotting, anti-EphA4 antibody); details: Compound E final concentration 50 nM, one week; endogenous EphA4; vs sample untreated with Compound E; FIG. 2
T2 construct: endogenous in cells; host or cells: primary culture of hippocampal neurons from embryonic day 18 SD rats (Charles River)
Method: Whether or not EphA4 is a substrate for γ-secretase was evaluated using a primary culture of rat hippocampal neurons in the presence of a γ-secretase inhibitor. As the γ-secretase inhibitor, (2S)-2-{[(3,5-difluorophenyl)acetyl]amino}-N-[(3S)-1-methyl-2-oxo-5-phenyl-2,3-dihydro-1H-1,4-benzodiazepin-3-yl]propanamide (Compound E) (Alexis Biochemicals) was used.
The hippocampus was isolated from embryonic day 18 SD rats (Charles River) and subjected to culture. Specifically, embryos were removed aseptically from pregnant rats under etherization. The brain was removed from each embryo and dipped in 20% FBS (Hyclone)/HBSS (Sigma). The hippocampus was collected from the thus obtained brain under a stereomicroscope. The collected hippocampus was treated in an enzyme solution containing 0.25% trypsin (Invitrogen) and 0.5 mg/ml DNase (Sigma) at 35° C. for 10 minutes to disperse cells. This enzyme reaction was terminated by adding 20% FBS (Hyclone)/HBSS (Sigma). Then, 2 ml of HBSS (Sigma) was added to the resultant cells. The HBSS-added cell mass was re-dispersed by gentle pipetting. The resultant neuron suspension was diluted with a medium and plated in 10 cm dishes at an initial cell density of 1.5×10^6 cells/dish. […] Then, cells were collected with PBS and subjected to quantitative determination of protein. […]

[3] = system: primary culture of rat hippocampal neurons; test: Spine formation analysis by overexpression of EphA4 fragments in primary culture of rat hippocampal neurons; details: fragment gene transfected on day 9 of culture, counted twelve days after gene transfer, GFP-visualized; vs HA control; FIG. 4, FIG. 5
Method: Primary culture of rat hippocampal neurons were cultured in the same manner as described in Example 2. On day 9 of culture, gene transfer experiment was performed using Lipofectamine 2000 (Invitrogen) according to the manual. In order to visualize the morphology of spines, pcDNA3.1Syn1 GFP (SEQ ID NO: 306) was co-transferred into the neurons. Twelve days after the gene transfer, the neurons were fixed with 2% paraformaldehyde, treated with 0.25% TritonX-100 and blocked with BlockAce (Snow Brand Milk). After the blocking, the neurons were treated with rabbit anti-GFP antibody (Invitrogen) and rat anti-HA antibody (Roche); and reacted with FITC-linked anti-rabbit IgG antibody (Jackson), Cy3-linked anti-mouse IgG antibody (Jackson) and Cy5-linked anti-rat IgG antibody (Jackson). […] The spines (protuberances formed on dendrites) which were visualized by the expression of GFP were counted. Image data were quantitatively determined with image analysis software Metamorph (Molecular Devices). pcDNA3.1Syn1 GFP may be obtained by the procedures described below.
In the above-mentioned Example 4, the gene with an HA tag added to its N-terminus (SEQ ID NO:197), which is one of the two cleaved fragments, was transfected instead of the HA-EphA4 intracellular fragment and spine formation was analyzed in the same way based on the cleavage site specified in Example 3.

[4] = system: NIH3T3 cells; test: Lamellipodia formation (Rac1 activation indicator) after gene transfer into NIH3T3 cells; details: FIG. 6, FIG. 7; for lamellipodia formation promotive capacity: cotransfected with Rac1N17 (dominant negative form of Rac1); for lamellipodia formation: fragment gene transfected alone, vs HA control
Method: In order to examine whether or not EICD produced by γ-secretase is involved in the signaling mechanism of Rho family molecules, and activation of which molecule EICD is involved in, gene transfer into NIH3T3 cells was performed, followed by analysis of the effect of EICD in the rearrangement of actin cytoskeletons in which Rho family molecules are involved. In the rearrangement, the following facts are known: when RhoA is activated, actin fibers called stress fibers are formed at the bottom of cells; when Cdc42 is activated, protrusions called filopodia are formed; when Rac1 is activated, structures called lamellipodia are formed. The effect of EICD was examined with these formations as indicators.
NIH3T3 cells were cultured in 10% CBS (flow)/Antibiotic-Antimycotic (Invitrogen)/DMEM (Invitrogen) under 5% CO2 at 37° C. Genes encoding HA-EICD (SEQ ID NO: 93) or EICD+Rac1N17 (SEQ ID NO: 200) were transfected into the cells with Lipofectamine 2000 (Invitrogen). Eighteen hours later, the cells were replated in wells provided with poly-L-lysin (SIGMA)-coated 13 mm cover glass. Eighteen hours thereafter, the cells were fixed in 2% paraformaldehyde (Wako), treated with 0.25% TritonX-100 and blocked with BlockAce (Snow Brand Milk Products). After the blocking, the cells were treated with rat anti-HA antibody (Roche), followed by reaction with FITC-linked anti-rat IgG antibody (Jackson) and Alexa Fluor phalloidin 546 (Molecular probes).
In the above-mentioned Example 6, the EphA4 fragment used in Example 5 (SEQ ID NO: 197) was transfected instead of the HA-EphA4 intracellular fragment and lamellipodia formation was analyzed in the same way.
Genes encoding HA, HA-EICD (SEQ ID NO: 93) and various EICD mutants (HA-EICD Δ1 to HA-EICD Δ4) prepared in (1) above were transfected to NIH3T3 cells separately in the same manner as described in Examples 6 and 7. Then, ratios of lamellipodia forming cells were examined. In the various EICD mutants described below, capital letters appearing at the 5′ end of the nucleotide sequences represent a nucleotide sequence encoding HA tag. Small letters appearing at the 3′ end represent a nucleotide sequence encoding EphA4 intracellular fragment.

| Molecule | accumulation of EphA4 C-terminal fragment (CTF) band [1] | accumulation of EphA4 C-terminal fragment (CTF) band [2] | number of spines [3] | lamellipodia formation promotive capacity [4] | lamellipodia formation [4] |
| --- | --- | --- | --- | --- | --- |
| C[C@H](NC(=O)Cc1cc(F)cc(F)c1)C(=O)N[C@H]1N=C(c2ccccc2)c2ccccc2N(C)C1=O [Compound E, (2S)-2-{[(3,5-difluorophenyl)acetyl]amino}-N-[(3S)-1-methyl-2-oxo-5-phenyl-2,3-dihydro-1H-1,4-benzodiazepin-3-yl]propanamide] | a band around 50 kDa (CTF) was accumulated specifically | a band around 50 kDa (CTF) was accumulated specifically | – | – | – |
| B1 | – | – | increases the number of spines | disappeared completely | lamellipodia formation is promoted |
| B2 | – | – | increases the number of spines | disappeared completely | promotes lamellipodia formation |
